# Laboratory results: publication PMC3795040
# Biological target: HA70 of BoNT/A (full-length, residues M1–N626) (Clostridium botulinum strain 62A (BoNT/A1-producing))
# Test: ITC; […] ([…]) […] (400 µM) […]; 23°C; 50 mM Tris pH 7.6, 100 mM NaCl; […]
substance,measurement,value
synthetic nLoop peptide of NTNHA (from UniProt Q45914 116-148),Kd,340 nM
same,stoichiometry N (nLoop per HA70 trimer),1
